Among the data in the supplement of paper PMC6379048 are EC50 values, retold here.

As usually defined, the EC50 is the midpoint of the concentration-response curve. Read a high EC50 as lower potency in that assay.

Common to all, as to assay: EC50 of free RNA motif oligo competing protein binding to immobilised probe
In one series the target is T1, SYNCRIP (UniProt O60506).
T1 sequence: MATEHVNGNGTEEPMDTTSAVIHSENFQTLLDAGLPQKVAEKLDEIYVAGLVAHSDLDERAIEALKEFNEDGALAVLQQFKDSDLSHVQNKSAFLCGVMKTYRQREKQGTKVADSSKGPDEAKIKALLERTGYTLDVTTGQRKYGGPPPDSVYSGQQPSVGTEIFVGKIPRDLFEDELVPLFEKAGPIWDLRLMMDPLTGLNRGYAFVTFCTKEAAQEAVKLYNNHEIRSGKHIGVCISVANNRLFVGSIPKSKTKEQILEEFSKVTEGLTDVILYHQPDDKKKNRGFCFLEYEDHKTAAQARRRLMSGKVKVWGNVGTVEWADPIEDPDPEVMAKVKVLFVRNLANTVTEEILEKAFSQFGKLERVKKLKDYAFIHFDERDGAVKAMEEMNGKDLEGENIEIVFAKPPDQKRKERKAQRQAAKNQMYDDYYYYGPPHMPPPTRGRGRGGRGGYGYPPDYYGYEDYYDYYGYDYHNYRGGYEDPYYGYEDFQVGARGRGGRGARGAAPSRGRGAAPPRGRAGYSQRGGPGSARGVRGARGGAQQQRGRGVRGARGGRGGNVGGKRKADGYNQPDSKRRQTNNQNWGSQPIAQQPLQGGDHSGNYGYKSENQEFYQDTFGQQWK
In outline: (§1)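 HEK293-FT lysate (2.5 mg protein/well) was treated with free RNA oligos (0 nM to 30 μM) for 1 h at 4°C, then with the same oligos on NHS-Sepharose beads for 30 min at 4°C. Bound proteins were quantified by label-free LC-MS/MS relative to the control. EC50 came from a four-parameter log-logistic fit, and Kd is EC50 times a protein-dependent depletion factor.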

The next series deals with PTBP3 (UniProt O95758). In outline:
as §1

The next series deals with T2, HMGB2 (UniProt P26583).
T2 sequence: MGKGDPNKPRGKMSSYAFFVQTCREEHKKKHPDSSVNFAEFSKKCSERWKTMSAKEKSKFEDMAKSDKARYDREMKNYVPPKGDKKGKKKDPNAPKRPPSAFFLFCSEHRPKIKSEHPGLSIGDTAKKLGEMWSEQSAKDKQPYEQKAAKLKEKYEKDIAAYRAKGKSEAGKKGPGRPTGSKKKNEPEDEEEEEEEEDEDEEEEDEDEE
In outline:
as §1

For a further series, the target named is SRRM2 (UniProt Q9UQ35). In outline:
as §1

Another series addresses GNB2L1 (UniProt P63244). In outline:
as §1

A further series has as its target MRPL38 (UniProt Q96DV4). In outline: as §1
The target of a further series is MRPL49 (UniProt Q13405). In outline:
as §1

The target of the next series is T3, ZCRB1 (UniProt Q8TBF4).
T3 sequence: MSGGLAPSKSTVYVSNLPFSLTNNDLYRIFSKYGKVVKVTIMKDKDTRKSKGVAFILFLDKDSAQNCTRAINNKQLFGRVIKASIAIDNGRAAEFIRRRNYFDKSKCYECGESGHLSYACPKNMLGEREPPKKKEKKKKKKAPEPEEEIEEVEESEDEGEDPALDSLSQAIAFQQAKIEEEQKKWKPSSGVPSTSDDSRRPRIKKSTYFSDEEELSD
In outline:
as §1

In a further series the target is T4, MYEF2 (UniProt Q9P2K5).
T4 sequence: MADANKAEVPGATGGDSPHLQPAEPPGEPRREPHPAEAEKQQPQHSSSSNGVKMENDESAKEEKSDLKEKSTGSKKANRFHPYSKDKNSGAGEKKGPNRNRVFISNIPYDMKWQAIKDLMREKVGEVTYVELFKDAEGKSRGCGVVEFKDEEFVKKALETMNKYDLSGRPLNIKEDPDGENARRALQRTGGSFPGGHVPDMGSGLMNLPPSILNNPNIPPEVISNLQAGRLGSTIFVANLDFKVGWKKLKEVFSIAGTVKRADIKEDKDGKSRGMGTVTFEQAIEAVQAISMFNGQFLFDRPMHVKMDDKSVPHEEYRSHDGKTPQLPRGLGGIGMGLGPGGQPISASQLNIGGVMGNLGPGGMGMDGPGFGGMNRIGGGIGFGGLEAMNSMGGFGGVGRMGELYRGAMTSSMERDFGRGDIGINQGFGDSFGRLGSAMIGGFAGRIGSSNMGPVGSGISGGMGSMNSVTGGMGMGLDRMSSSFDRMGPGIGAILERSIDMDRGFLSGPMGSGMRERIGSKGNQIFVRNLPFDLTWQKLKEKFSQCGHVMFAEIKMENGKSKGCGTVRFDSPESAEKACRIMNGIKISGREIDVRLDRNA
In outline: as §1

In a further series the target is HNRNPA2B1 (UniProt P22626). In outline: as §1
Sequence of HNRNPA2B1 (P22626 whole entry): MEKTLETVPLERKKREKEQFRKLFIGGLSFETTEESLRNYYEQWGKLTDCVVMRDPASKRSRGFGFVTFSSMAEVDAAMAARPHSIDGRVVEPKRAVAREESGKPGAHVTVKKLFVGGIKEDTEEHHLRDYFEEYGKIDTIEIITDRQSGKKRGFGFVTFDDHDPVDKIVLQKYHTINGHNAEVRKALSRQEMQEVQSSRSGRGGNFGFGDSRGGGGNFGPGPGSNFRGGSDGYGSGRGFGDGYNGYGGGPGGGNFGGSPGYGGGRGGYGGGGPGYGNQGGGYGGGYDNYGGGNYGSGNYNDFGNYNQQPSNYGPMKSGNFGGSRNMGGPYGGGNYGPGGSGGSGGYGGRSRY

Sequence of SRRM2 (Q9UQ35 whole entry): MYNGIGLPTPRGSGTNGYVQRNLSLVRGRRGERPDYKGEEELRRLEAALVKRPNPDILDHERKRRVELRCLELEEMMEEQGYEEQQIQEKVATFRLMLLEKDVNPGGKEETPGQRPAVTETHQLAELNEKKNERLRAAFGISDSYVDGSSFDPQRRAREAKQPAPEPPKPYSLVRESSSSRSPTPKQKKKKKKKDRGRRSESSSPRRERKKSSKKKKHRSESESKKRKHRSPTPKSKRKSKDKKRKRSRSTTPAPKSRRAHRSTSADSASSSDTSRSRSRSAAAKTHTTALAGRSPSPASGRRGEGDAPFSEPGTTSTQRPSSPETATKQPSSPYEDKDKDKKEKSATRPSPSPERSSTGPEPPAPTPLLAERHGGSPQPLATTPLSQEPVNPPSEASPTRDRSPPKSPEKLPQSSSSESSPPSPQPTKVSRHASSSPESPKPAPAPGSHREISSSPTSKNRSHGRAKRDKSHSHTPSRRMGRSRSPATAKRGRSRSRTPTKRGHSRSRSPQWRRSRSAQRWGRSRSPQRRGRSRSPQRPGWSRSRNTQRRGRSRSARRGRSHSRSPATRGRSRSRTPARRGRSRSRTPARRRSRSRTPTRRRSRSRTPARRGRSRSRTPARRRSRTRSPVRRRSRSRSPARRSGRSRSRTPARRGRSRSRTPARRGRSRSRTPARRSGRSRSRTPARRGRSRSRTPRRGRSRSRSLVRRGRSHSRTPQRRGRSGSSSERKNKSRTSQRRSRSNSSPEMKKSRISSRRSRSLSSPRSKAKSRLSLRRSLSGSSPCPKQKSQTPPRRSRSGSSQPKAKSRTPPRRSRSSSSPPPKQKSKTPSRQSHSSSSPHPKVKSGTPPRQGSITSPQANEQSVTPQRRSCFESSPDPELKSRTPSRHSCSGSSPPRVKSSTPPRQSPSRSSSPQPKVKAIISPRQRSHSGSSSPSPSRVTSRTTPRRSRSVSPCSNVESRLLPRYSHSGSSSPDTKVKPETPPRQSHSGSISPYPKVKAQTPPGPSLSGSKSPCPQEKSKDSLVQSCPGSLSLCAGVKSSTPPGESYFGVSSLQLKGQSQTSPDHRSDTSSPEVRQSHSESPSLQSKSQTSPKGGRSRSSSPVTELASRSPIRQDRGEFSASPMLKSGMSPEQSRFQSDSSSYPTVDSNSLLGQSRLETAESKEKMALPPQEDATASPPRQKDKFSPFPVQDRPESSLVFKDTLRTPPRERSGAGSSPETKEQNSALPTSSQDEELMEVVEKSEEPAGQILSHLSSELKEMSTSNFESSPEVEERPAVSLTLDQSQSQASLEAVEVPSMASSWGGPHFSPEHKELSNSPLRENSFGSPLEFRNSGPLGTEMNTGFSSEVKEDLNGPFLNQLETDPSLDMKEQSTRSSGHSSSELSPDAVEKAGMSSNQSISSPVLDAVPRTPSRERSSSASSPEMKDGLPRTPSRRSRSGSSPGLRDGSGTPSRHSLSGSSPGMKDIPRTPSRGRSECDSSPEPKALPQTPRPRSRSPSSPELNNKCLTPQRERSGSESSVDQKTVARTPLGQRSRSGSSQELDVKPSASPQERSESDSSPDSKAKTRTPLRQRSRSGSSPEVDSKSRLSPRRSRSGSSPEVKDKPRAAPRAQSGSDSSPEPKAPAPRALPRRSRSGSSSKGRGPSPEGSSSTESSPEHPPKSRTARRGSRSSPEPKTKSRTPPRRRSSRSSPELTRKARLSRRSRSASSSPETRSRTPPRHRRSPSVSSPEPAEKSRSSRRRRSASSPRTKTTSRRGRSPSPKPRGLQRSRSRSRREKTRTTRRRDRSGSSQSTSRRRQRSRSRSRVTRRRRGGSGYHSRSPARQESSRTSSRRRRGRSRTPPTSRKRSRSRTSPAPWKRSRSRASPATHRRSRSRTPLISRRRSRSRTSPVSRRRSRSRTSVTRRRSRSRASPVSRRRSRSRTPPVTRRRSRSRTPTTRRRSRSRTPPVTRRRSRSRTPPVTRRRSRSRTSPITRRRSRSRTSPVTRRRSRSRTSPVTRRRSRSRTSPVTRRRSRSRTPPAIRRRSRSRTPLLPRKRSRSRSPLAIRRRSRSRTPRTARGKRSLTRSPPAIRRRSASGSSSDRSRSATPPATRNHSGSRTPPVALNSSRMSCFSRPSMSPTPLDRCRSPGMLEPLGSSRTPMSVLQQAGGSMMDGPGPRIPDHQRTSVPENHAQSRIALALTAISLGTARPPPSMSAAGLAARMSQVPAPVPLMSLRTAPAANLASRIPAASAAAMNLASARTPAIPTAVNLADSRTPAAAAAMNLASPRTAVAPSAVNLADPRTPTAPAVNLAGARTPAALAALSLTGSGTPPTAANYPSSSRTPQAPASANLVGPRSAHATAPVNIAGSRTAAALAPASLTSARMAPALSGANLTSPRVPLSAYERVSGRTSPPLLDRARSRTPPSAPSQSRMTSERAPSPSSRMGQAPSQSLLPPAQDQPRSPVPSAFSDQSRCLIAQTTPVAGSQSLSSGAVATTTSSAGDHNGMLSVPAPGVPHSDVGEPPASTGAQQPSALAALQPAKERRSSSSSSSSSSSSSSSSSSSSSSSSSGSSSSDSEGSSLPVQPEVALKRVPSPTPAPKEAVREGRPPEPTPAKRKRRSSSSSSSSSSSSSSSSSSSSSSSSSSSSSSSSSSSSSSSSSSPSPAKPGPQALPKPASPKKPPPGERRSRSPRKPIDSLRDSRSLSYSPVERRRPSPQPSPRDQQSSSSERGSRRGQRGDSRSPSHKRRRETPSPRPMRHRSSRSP
Sequence of PTBP3 (O95758 whole entry): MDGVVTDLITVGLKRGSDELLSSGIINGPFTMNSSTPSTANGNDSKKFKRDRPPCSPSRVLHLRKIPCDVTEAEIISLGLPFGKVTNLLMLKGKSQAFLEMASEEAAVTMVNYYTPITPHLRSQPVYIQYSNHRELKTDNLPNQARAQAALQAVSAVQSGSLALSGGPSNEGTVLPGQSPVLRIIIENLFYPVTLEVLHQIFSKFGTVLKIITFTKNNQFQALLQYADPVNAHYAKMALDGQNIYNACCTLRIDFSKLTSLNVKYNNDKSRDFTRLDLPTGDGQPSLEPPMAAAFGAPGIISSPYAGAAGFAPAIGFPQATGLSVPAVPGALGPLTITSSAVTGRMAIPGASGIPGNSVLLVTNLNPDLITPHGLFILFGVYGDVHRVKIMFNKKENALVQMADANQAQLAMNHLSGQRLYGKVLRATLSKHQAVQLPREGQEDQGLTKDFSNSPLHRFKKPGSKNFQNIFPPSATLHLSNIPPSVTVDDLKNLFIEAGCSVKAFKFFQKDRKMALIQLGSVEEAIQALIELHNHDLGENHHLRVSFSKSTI

AAUAAA: the EC50 in the series with SYNCRIP is 1850 nM; with PTBP3 it was 6990 nM; with HMGB2 it was 2.5 nM; with SRRM2, 1040 nM.
For CUGUCCU, the EC50 stood at 2980 nM with GNB2L1, 119 nM in the series with MRPL38 and 109 nM with MRPL49.
Turning to UAUUUAU, the values for the EC50 with ZCRB1, in the series with MYEF2 and in the series with HNRNPA2B1 were 3800 nM, 3800 nM and 7320 nM, respectively.
